{"source": "paper doi:10.1101/2023.06.06.543969", "assay_in_all_cases": "BLI", "key": {"[1]": {"target": "His-tagged HIV Env MPER peptide"}, "[2]": {"target": "biotinylated SARS-CoV-2 fusion peptide"}, "SARS-CoV-2 spike": {"target": "SARS-CoV-2 spike"}, "[3]": {"target": "HCV E2 envelope glycoprotein"}, "[4]": {"target": "HC84.26.5D Fab VH G50R (human)"}}, "data": [{"substance": "4E10 Fab (WT) VH:G50R", "values": [{"measurement": "ratio to parent", "setting": "[1]", "result": "> 100"}]}, {"substance": "COV44–62 Fab (WT) VH:R50W", "values": [{"measurement": "ratio to parent", "setting": "[2]", "result": "> 100"}]}, {"substance": "COVOX-316 VH:W50R", "values": [{"measurement": "ratio to parent", "setting": "SARS-CoV-2 spike", "result": "> 100"}]}, {"substance": "HC33.8 VH:S52Y", "values": [{"measurement": "ratio to parent", "setting": "[3]", "result": "> 100"}]}, {"substance": "HCV1 VH:W52S", "values": [{"measurement": "ratio to parent", "setting": "[3]", "result": "> 100"}]}, {"substance": "HCV (isolate H77) E2 domain (domain or fragment)", "values": [{"measurement": "fold change in KD against the wild type", "setting": "[4]", "result": 6, "unit": "fold"}]}, {"substance": "P008_60 VH:S52R", "values": [{"measurement": "ratio to parent", "setting": "SARS-CoV-2 spike", "result": "> 100"}]}]}
